The target in the assay is T1, GST-AIPL1 (Homo sapiens (Human), UniProt Q9NZN9).
T1 chain: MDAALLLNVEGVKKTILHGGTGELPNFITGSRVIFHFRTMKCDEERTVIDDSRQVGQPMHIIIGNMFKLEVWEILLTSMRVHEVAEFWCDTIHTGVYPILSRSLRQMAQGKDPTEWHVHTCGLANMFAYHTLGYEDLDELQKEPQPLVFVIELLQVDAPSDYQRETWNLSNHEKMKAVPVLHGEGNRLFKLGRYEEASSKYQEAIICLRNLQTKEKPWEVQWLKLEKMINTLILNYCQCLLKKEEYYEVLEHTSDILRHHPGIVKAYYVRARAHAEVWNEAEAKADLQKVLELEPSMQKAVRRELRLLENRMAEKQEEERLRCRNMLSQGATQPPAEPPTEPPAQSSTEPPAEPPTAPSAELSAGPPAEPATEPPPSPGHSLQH
Briefly: GST pull-down.

B1: His6-FAT10, recombinant purified (protein)
chain: MAPNASCLCVHVRSEEWDLMTFDANPYDSVKKIKEHVRSKTKVPVQDQVLLLGSKILKPRRSLSSYGIDKEKTIHLTLKVVKPSDEELPLFLVESGDEAKRHLLQVRRSSSVAQVKAMIETKTGIIPETQIVTCNGKRLEDGKMMADYGIRKGNLLFLACYCIGG
Consider B1, for which the binding result was “binds”.

The record behind these values is publication PMC3274541 (2012).
